The record followed here is US20190194309A1 (AGENCY FOR SCIENCE TECHNOLOGY AND RESEARCH, published 2019).

The assay has as its target T1, Macrophage stimulating protein receptor (RON - Recepteur d' Origine Nantais), human (human, UniProt Q04912 25-1400).
T1 construct: whole, on cells; Endogenous RON of human cancer cell lines (HCT116, HT29, T47D and others) or RON transfected into H1299 cells; In Western blots and immunoprecipitations it comes from cell lysates; also called human RON receptor tyrosine kinase; MST1R
The assay can be described thus: immunofluorescence on PFA fixed HCT116 cells. The protocol: Cells were stained with DAPI for nuclear visualization and anti-mouse conjugate to 488 was used as a secondary mouse antibody.
The 4% paraformaldehyde fixed HCT116 and TKO cells were subjected to permeabilization with 0.4% Triton X-100 for 20 minutes. After rinsing with PBS, cells were blocked with 5% BSA in PBSTritonX (PBSTX) for 20 min, followed by overnight incubation in hybridoma supernatant at 4° C. IgGs were detected using 1:1000 […] Alexaflor 488 Donkey anti-mouse IgG conjugated (Life technologies) in PBSTX with 1% BSA. Subsequently, cells were counterstained with DAPI, and viewed with Incell Analyzer (GE Healthcare).

B1: 7G8 (antibody, V domains shown)
VH: EVQLEQSGGGLVQPGGSLKLSCAASGFTFNTYTMSWVRQTPEKRLEWVAYISNGGGSTYYPDTVKGRFTISRDNAKNTLYLQMSSLKSEDTAMYYCARGYRYAAMDYWGQGTSVTVSS
VL: DIVMTQTTATLSVTPGDGVSLSCRASQSINNNLHWYQQKSHESPRLLIKFASQSISGIPSRFSGSGSGTDFTLSINSVETEDFGMYFCQQSNSWPLTFGAGTKLELK
notes: Mouse monoclonal antibody from a hybridoma (Balb/c mice immunised with truncated human RON-GST); kappa light chain; Tested as hybridoma supernatant or purified mAb; also called mAb 7G8; anti-RON mouse mAb 7G8
For the molecule B1, the binding result is reported as “binds”.
